Measured values published in article PMC3118927.
Numbering of substitutions follows the chain as printed. Where two headings read alike, the source gives them in different places.

B1: fkh[250con] (dsDNA)
DNA 1: GATCTCAATGTCAAGATTTATGGCCAGCTGTGGGACGA
DNA 2: CCTCGTCCCACAGCTGGCCATAAATCTTGACATTGAGA
B2: PrFHOX (dsDNA)
DNA 1: TGATGGCTTCCCTTATGATTTTTTGAATAATTTCTTTA
DNA 2: TATAAAGAAATTATTCAAAAAATCATAAGGGAAGCCAT
B3: PrFEXD (dsDNA)
DNA 1: B2 DNA 1 with G17A, A18G, T22A
DNA 2: B2 DNA 2 with A19T, T23C, C24T
B4: PrFWT (dsDNA)
DNA 1: B2 DNA 1 with T22A
DNA 2: B2 DNA 2 with A19T

What was measured:
Assay in all cases: EMSA
Exd (Extradenticle);Ubx [1] = biological target: T1, Exd (Extradenticle);Ubx (Drosophila melanogaster?;Drosophila …, UniProt P40427;P83949 1-376;56-389, |)
T1 sequence (P40427 whole entry, chain 1 of 2): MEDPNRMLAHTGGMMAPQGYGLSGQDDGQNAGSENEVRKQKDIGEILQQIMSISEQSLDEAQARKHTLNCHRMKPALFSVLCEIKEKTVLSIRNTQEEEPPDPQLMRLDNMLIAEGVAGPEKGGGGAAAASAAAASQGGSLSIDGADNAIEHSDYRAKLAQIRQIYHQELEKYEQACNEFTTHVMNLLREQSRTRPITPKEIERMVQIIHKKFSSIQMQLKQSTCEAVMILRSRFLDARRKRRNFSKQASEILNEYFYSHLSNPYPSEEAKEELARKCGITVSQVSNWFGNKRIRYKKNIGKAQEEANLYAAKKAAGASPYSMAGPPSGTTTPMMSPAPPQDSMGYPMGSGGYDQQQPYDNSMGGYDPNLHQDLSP
T1 sequence (P83949 56-389, chain 2 of 2): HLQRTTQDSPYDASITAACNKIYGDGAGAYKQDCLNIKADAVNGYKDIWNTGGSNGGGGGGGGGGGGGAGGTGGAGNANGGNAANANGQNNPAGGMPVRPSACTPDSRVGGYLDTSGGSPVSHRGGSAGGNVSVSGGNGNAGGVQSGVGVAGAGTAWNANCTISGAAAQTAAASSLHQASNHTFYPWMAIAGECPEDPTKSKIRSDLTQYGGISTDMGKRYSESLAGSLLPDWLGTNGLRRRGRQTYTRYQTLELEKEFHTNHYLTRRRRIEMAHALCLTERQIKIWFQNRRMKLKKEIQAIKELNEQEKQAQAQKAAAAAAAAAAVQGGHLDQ

Exd (Extradenticle);Ubx [2] = biological target: T1, Exd (Extradenticle);Ubx; remark: listed apart in the source
Exd (Extradenticle);Ubx [3] = biological target: T1, Exd (Extradenticle);Ubx; remark: listed apart in the source

Binder	binding result (Exd (Extradenticle);Ubx [2])	further results
B1		binding result (Exd (Extradenticle);Ubx [1]): binds
B2	no binding	
B3	no binding	
B4		binding result (Exd (Extradenticle);Ubx [3]): binds
